Paper doi:10.1101/041756
Where two headings read alike, the source gives them in different places.

Experiments:
[1] = biological target: microtubules (human (endogenous in HeLa)) (UniProt P68363)
[2] = biological target: microtubules (human (endogenous in HeLa)) (UniProt P68363); remark: listed apart in the source

UniProt P68363, sequence (P68363 whole entry): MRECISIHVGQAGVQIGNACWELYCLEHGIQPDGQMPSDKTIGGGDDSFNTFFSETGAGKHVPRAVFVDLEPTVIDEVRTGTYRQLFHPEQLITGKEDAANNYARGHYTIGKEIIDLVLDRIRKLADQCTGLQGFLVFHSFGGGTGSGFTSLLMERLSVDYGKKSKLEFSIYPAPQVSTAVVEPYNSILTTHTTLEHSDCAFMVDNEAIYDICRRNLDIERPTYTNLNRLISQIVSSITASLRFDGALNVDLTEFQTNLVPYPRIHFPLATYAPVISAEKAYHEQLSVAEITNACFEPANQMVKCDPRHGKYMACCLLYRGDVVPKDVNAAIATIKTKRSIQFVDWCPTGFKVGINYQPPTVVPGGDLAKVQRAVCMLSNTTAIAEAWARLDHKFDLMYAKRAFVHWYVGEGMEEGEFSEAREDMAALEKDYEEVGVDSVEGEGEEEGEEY

FRAP in living reporter cells: mobile fraction [1] | Substance | also measured
57% | AT8mut-CST (S199A/S202A/T205A) | FRAP in living reporter cells: τ2 [1]: 46.8
 | Conformational-Sensitive Tau sensor (ECFP-Tau-EYFP, full length Tau-D, 0N4R) (from UniProt P10636-6 1-383) | FRAP in living reporter cells: mobile fraction [2]: 73%; FRAP in living reporter cells: τ1 of the MTs-bound phase [2]: 30 s
84% | P301L-CST | FRAP in living reporter cells: diffusive fraction [1]: 38%
85% | P301S-CST | 
86% | S422E-CST | 
